Reference: patent US20250243290A1
Where “and” joins values, the source holds several entries; their conditions need not be identical. Identical values can stand only once.

Tests used:
2LS2…2RPGW = experiment: peptide-array ELISA
2…2RPG = experiment: peptide-array ELISA
2…2RP = experiment: peptide-array ELISA
[1] = biological target: CEQNRI2T2RPGWY2…2TSTSPTRC; experiment: peptide-array ELISA
E2LS2…2RP = experiment: peptide-array ELISA
LS2…2RPG = experiment: peptide-array ELISA
LS2…2RP = experiment: peptide-array ELISA
LWNWVPE2…2T = experiment: peptide-array ELISA
LWNWVPE2…2 = experiment: peptide-array ELISA
[2] = biological target: QEGCRL2…; experiment: peptide-array ELISA
QEGCRL2…, sequence (peptide, as listed by the source): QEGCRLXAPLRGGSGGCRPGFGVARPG

S2…2RPG = experiment: peptide-array ELISA
S2…2RP = experiment: peptide-array ELISA
VPE2LSCGSR2…2 = experiment: peptide-array ELISA
WNWVPE2…2 = experiment: peptide-array ELISA
…2RP [3] = experiment: peptide-array ELISA
…2…2RP = experiment: peptide-array ELISA
2LS2…2RP = experiment: peptide-array ELISA [Con't]
2LS2…2TREQNRIC = experiment: peptide-array ELISA [Con't]
[4] = biological target: 2…2…; experiment: peptide-array ELISA [Con't]
[5] = biological target: 2…; experiment: peptide-array ELISA [Con't]
2…, sequence (peptide, as listed by the source): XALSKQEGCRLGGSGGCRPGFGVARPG

CAPLRK2…2APGTFSN = experiment: peptide-array ELISA [Con't]
CG2RL2APLRK2…2TSTSPTRC = experiment: peptide-array ELISA [Con't]
[6] = biological target: CQI2…2…; experiment: peptide-array ELISA [Con't]
E2LS2…2RPG = experiment: peptide-array ELISA [Con't]
E2LS2…2TREQNRIC = experiment: peptide-array ELISA [Con't]
[7] = biological target: EGCRL2…; experiment: peptide-array ELISA [Con't]
EGCRL2…, sequence (peptide, as listed by the source): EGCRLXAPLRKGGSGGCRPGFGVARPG

[8] = biological target: KQEGCRL2…; experiment: peptide-array ELISA [Con't]
KQEGCRL2…, sequence (peptide, as listed by the source): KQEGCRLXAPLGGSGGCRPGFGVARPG

LS2…2RPGW = experiment: peptide-array ELISA [Con't]
LWNWVPE2…2T2 = experiment: peptide-array ELISA [Con't]
NRI2…2RL = experiment: peptide-array ELISA [Con't]
NWVPE2…2T = experiment: peptide-array ELISA [Con't]
PE2LS2…2RPGW = experiment: peptide-array ELISA [Con't]
[9] = biological target: PE2LS2…2…; experiment: peptide-array ELISA [Con't]
PE2LSCGSR2…2 = experiment: peptide-array ELISA [Con't]
RLCAPLRK2…2APGTFSN = experiment: peptide-array ELISA [Con't]
[10] = biological target: SKQEGCRL2…; experiment: peptide-array ELISA [Con't]
SKQEGCRL2…, sequence (peptide, as listed by the source): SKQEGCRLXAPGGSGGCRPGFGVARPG

[11] = biological target: TSDVV2…; experiment: peptide-array ELISA [Con't]
VPE2LS2…2RPG = experiment: peptide-array ELISA [Con't]
[12] = biological target: VPE2LS2…2…; experiment: peptide-array ELISA [Con't]
VPE2LSCGSR2…2T = experiment: peptide-array ELISA [Con't]
WNWVPE2…2T = experiment: peptide-array ELISA [Con't]
[13] = biological target: WNWVPE2…; experiment: peptide-array ELISA [Con't]
WNWVPE2…, sequence (peptide, as listed by the source): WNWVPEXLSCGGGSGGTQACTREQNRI

WVPE2…2T2 = experiment: peptide-array ELISA [Con't]
WVPE2…2T = experiment: peptide-array ELISA [Con't]
WVPE2…2 = experiment: peptide-array ELISA [Con't]
[14] = biological target: WY2…2…; experiment: peptide-array ELISA [Con't]
[15] = biological target: WY2…; experiment: peptide-array ELISA [Con't]
WY2…, sequence (peptide, as listed by the source): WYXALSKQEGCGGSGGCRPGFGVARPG

…2RPGW = experiment: peptide-array ELISA [Con't]
…2RPGW, sequence (peptide, as listed by the source): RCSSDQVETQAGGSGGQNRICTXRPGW

…2RPG = experiment: peptide-array ELISA [Con't]
…2RP [16] = experiment: peptide-array ELISA [Con't]
…2…2RPG = experiment: peptide-array ELISA [Con't]
…2…2R = experiment: peptide-array ELISA [Con't]
[17] = biological target: …2…; experiment: peptide-array ELISA [Con't]
CLSKQEG2RL2…2TREQNRIC = experiment: peptide-array ELISA [Con't]
[18] = biological target: CQTAQM22SK2…2…; experiment: peptide-array ELISA [Con't]
[19] = biological target: DVV2…; experiment: peptide-array ELISA [Con't]
…2SK2SPGQ = experiment: peptide-array ELISA [Con't]

agonistic TNFR2 antibody MR2-1
Raw luminescence data (2LS2…2RPGW): 366
Raw luminescence data (2…2RPG): 389
Raw luminescence data (2…2RP): 510
Raw luminescence data [1]: 413
Raw luminescence data (E2LS2…2RP): 418
Raw luminescence data (LS2…2RPG): 433
Raw luminescence data (LS2…2RP): 584
Raw luminescence data (LWNWVPE2…2T): 467
Raw luminescence data (LWNWVPE2…2): 525
Raw luminescence data [2]: 428
Raw luminescence data (S2…2RPG): 385
Raw luminescence data (S2…2RP): 392
Raw luminescence data (VPE2LSCGSR2…2): 365
Raw luminescence data (WNWVPE2…2): 403
Raw luminescence data (…2RP [3]): 435 and 433
Raw luminescence data (…2…2RP): 459
Raw luminescence data (2LS2…2RP): 362
Raw luminescence data (2LS2…2TREQNRIC): 288
Raw luminescence data [4]: 299
Raw luminescence data [5]: 351
Raw luminescence data (CAPLRK2…2APGTFSN): 293
Raw luminescence data (CG2RL2APLRK2…2TSTSPTRC): 287
Raw luminescence data [6]: 286
Raw luminescence data (E2LS2…2RPG): 314
Raw luminescence data (E2LS2…2TREQNRIC): 299
Raw luminescence data [7]: 359
Raw luminescence data [8]: 352
Raw luminescence data (LS2…2RPGW): 299
Raw luminescence data (LWNWVPE2…2T2): 353
Raw luminescence data (NRI2…2RL): 296
Raw luminescence data (NWVPE2…2T): 283
Raw luminescence data (PE2LS2…2RPGW): 305
Raw luminescence data [9]: 317
Raw luminescence data (PE2LSCGSR2…2): 312
Raw luminescence data (RLCAPLRK2…2APGTFSN): 320
Raw luminescence data [10]: 288
Raw luminescence data [11]: 323
Raw luminescence data (VPE2LS2…2RPG): 295
Raw luminescence data [12]: 301
Raw luminescence data (VPE2LSCGSR2…2T): 292
Raw luminescence data (WNWVPE2…2T): 323
Raw luminescence data [13]: 291
Raw luminescence data (WVPE2…2T2): 287
Raw luminescence data (WVPE2…2T): 312
Raw luminescence data (WVPE2…2): 317
Raw luminescence data [14]: 287
Raw luminescence data [15]: 344
Raw luminescence data (…2RPGW): 308
Raw luminescence data (…2RPG): 341 and 293
Raw luminescence data (…2RP [16]): 324
Raw luminescence data (…2…2RPG): 304
Raw luminescence data (…2…2R): 299
Raw luminescence data [17]: 342 and 337
Raw luminescence data (CLSKQEG2RL2…2TREQNRIC): 160
Raw luminescence data [18]: 161
Raw luminescence data [19]: 159
Raw luminescence data (…2SK2SPGQ): 163 and 156
